Experiments:
[1] = molecular target: T1, mouse IL-18BP (amino acids 31-194) (mouse, UniProt Q9Z0M9 29-193, biotinylated on the AviTag (BirA ligase)); test: SPR; KD IL-18BP / KD IL-18Rα (30 µM used for NBD)
T1 construct: Secreted decoy receptor; made in Expi293 cells (H7 signal peptide); the stated range is the same as for the human protein; also called mIL-18BP
T1 sequence: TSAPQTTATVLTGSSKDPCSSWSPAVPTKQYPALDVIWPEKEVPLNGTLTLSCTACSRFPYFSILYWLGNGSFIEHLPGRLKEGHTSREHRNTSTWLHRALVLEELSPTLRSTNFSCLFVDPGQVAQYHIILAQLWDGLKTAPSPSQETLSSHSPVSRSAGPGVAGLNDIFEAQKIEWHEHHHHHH
Procedure: By contrast, very little binding is observed with the same variants and mIL-18BP (right). (FIG. 11B) Representative surface plasmon resonance sensorgrams between immobilized biotinylated mIL-18BP and the murine DR-IL-18 variants.
Experiments were conducted using a Biacore™ T100 (Protein analysis interaction system) and carried out at 25° C. Biotinylated IL-18Rα or TL-18BP were immobilized onto a Biacore™ biotin capture chip (Series S CAP sensor chip, GE Healthcare) to yield an Rmax of ˜50 RU (IL-18Rα) or ˜10 RU (IL-18BP). Measurements were made with serial dilutions of the IL-18 variants in HEPES buffered Saline-P+ buffer (10 mM HEPES pH 7.4, 150 mM NaCl, 0.005% surfactant P20). The surface was regenerated by three 60-see injections of regeneration buffer (3/4 (v/v) 8M guanidine hydrochloride with 1/4 (v/v) 1M sodium hydroxide). Experiments were performed in multiple channels simultaneously for increased observations. All data were analyzed with the Biacore™ T100 evaluation software version 2.0 with a 1:1 Langmuir binding model.

[2] = molecular target: T1, mouse IL-18BP (amino acids 31-194); test: on-yeast isotherms; KD IL-18BP / KD IL-18Rα (10 µM used for NBD)

B1: mE8 (ligand)
chain: NFGRLHCTTAVIRNINDQVLFVDKRQPVFEDMTDIDQSASEPQTRLIIYVYTDGRRRGKAVTLSVKDSKMSTLSCKNKIISFEEMDPPENIDDIQSDLIFFQKKVPGHDKMEFESSLYEGHFLACQKEDDAFKLILKKKDENGDKSVMFTLTNLHQS
notes: recombinant with C-terminal hexahistidine tag in SPR
- KD ratio: IL-18BP/IL-18Rα [1]: > 17800
- KD ratio: IL-18BP/IL-18Rα [2]: > 238

— US20250057918A1 (YALE UNIVERSITY, published 2025)
